Paper PMC314469, “Protein Interaction Networks by Proteome Peptide Scanning” (PLoS Biology, 2004)

T1: Boi2 SH3 (BOI2_YEAST), P39969
T1 chain: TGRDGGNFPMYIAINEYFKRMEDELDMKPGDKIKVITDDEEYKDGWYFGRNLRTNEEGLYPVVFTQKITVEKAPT

T2: Rvs167 SH3 (RV167_YEAST), P39743
T2 chain: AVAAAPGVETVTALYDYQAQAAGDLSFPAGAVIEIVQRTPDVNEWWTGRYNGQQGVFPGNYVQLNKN

T3: Boi1 SH3 (BOI1_YEAST), P38041
T3 chain: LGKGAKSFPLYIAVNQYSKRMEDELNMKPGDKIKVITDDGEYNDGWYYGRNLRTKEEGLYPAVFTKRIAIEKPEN

T4: Yhr016c SH3 (YSC84_YEAST), P32793
T4 chain: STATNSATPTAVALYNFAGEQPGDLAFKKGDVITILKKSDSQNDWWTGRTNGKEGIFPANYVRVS

T5: Yfr024 SH3 (LSB3_YEAST), P43603
T5 chain: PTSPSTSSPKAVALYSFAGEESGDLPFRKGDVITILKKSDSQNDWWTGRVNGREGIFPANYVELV


Assays:
Experiment in all cases: SPOT array
[1] = target: T1, Boi2 SH3 (BOI2_YEAST), P39969
[2] = target: T2, Rvs167 SH3 (RV167_YEAST), P39743
[3] = target: T3, Boi1 SH3 (BOI1_YEAST), P38041
[4] = target: T4, Yhr016c SH3 (YSC84_YEAST), P32793
[5] = target: T5, Yfr024 SH3 (LSB3_YEAST), P43603

Binder | normalised SPOT signal, Boehringer light units (BLU); mean over the file's lines of this peptide [1] | normalised SPOT signal, Boehringer light units (BLU); mean over the file's lines of this peptide [2] | normalised SPOT signal, Boehringer light units (BLU); mean over the file's lines of this peptide [3] | normalised SPOT signal, Boehringer light units (BLU); mean over the file's lines of this peptide [4] | normalised SPOT signal, Boehringer light units (BLU); mean over the file's lines of this peptide [5]
SSIPPNPGKTAKPI [YBR198C 108-121] | 42.9 | 56.1 | 71.5 | 429 | 135
SNSPISPHKLIYKN [YDR216W 473-486] | 0 | 51.3 | 71.5 | 143 | 0
SNSPQIPKKKVKDQ [YBL004W 1825-1838] | 64 | 34.4 | 698 | 151 | 1830
SPFPSAPLRKLEIL [YIL034C 92-105] | 39.5 | 29.4 | 49.9 | 205 | 86
SQFPSSPYRTVDPY [YLR183C 3-16] | 9 | 37.5 | 72 | 330 | 114
SQKPQKPKKSAITK [YJR033C 1337-1350] | 74.5 | 27 | 87.8 | 81.8 | 647
SSFPTIPLRASSGA [YER006W 232-245] | 9.1 | 786 | 468 | 777 | 3160
SRKPPIPAKQHVKK [YIL156W 547-560] | -0 | 14.9 | 51.7 | 35.2 | 4850
SSLPLGPIKERSKQ [YMR012W 146-159] | 19.3 | 15.4 | 120 | -0 | 78
SPLPVLPRRISTHT [YMR068W 249-262] | 40.5 | 19000 | 8950 | 29500 | 35800
SRPPRPPPKPLHLR [YIL095W 747-760] | 216 | 565 | 100 | 1020 | 25900
SPSPSTPTKSGKMR [YKL185W 424-437] | 52.9 | 35.3 | 278 | 150 | 302
SSMPNSPKKPVDSL [YDL117W 117-130] | 90.7 | 335 | 78.9 | 108 | 902

Now from value to binder:

normalised SPOT signal, Boehringer light units (BLU); mean over the file's lines of this peptide [1] | normalised SPOT signal, Boehringer light units (BLU); mean over the file's lines of this peptide [2] | normalised SPOT signal, Boehringer light units (BLU); mean over the file's lines of this peptide [3] | normalised SPOT signal, Boehringer light units (BLU); mean over the file's lines of this peptide [4] | normalised SPOT signal, Boehringer light units (BLU); mean over the file's lines of this peptide [5] | Binder
53.9 | 43.7 | 63.4 | 522 | 343 | SPSPLNPYRPHHNM [YNL298W 402-415]
16.7 | 40.7 | 66.2 | 61.3 | 300 | SSLPSPPAKKSATS [YOL006C 72-85]
45.3 | 25.3 | 105 | 243 | 22.8 | SPPPVSPSKMKTTK [YMR255W 106-119]
2.3 | 53.5 | 343 | 0 | 58.5 | SQQPTAPMKKTLLK [YMR198W 453-466]
36.6 | 57.3 | 47 | 214 | 624 | SQSPKRPKKYPKKA [YNL080C 295-308]
361 | 33600 | 56800 | 117000 | 35200 | SSPPPLPTRRDHIK [YPR171W 184-197]
51.3 | 47 | 61.1 | 136 | 116 | SNSPSPPEKINNKR [YMR086W 654-667]
75.1 | 20.9 | 25.6 | 282 | 85 | SSNPDDPIRVTTPM [YOL004W 293-306]
71.4 | 37.4 | 33.2 | 210 | 272 | SNVPTTPSRELNGT [YNL309W 346-359]
